Assay results published in the supplement of paper PMC9170038.

Assays:
MS2 coat protein [1] = assay: apparent KD of MS2 coat protein; designed switch direction (-1 OFF switch, 1 ON switch): 1; higher = weaker reporter binding
Summary of the method: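 An oligonucleotide input, 200 uM small-molecule ligand, or no input was present during titration of SNAP-549-labelled MS2 coat protein, which was doubled from 0.7 or 1.5 nM to 3 µM. Designed RNA switches had been transcribed on Illumina chips by stalled E. coli RNA polymerase. Apparent KD per design is the median over clusters of curves fitted to normalised cluster fluorescence.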

MS2 coat protein [2] = assay: apparent KD of MS2 coat protein; higher = weaker reporter binding; settings: Eterna round: R107
Summary of the method: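 The buffer was 100 mM Tris-HCl pH 7.5 with 80 mM KCl and 4 mM MgCl2, used without or with constant ligand. In it, RNA switches transcribed on-chip from Illumina sequencing clusters were titrated with SNAP-549-labelled MS2 coat protein in twofold steps from 0.7 or 1.5 nM to 3 µM. Apparent KD for each design is the median of its normalised cluster binding-curve fits.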

[3] = input ligand: microRNA oligo, concentration not stated
[4] = Eterna round: R95, input ligand: FMN 200 uM
[5] = Eterna round: R95, input ligand: microRNA oligo, concentration not stated
[6] = Eterna round: R95, input ligand: none
[7] = input ligand: theophylline 20 uM
[8] = input ligand: theophylline 2 mM
[9] = input ligand: tryptophan 2.4 mM

Sequence	apparent KD of MS2 coat protein (MS2 coat protein [1]; input ligand: FMN 200 uM) [nM]	apparent KD of MS2 coat protein (MS2 coat protein [1]; [3]) [nM]	apparent KD of MS2 coat protein (MS2 coat protein [1]; input ligand: none) [nM]	further results
AAAAUGGUAUGUUACAUGAGGAUCACCCAUGUACGGUCAUCUGAGGAUAUGGUGAUGUAGAAGAAUCAGAAGGCAGACAUUUAA [AK SSNG3-V2-26] (Eterna round: R96, puzzle: Same State NG 3)	27.9	19.8	32.3	
AAUAAACAUGAGGAUCACCCAUGUAGUGCUUUAGCAGGAUAUGUGAGGAUCAAAUCCAUGGCAGAAGGGUUAUGGC [Inondiorbi] (puzzle: Same State 1)				apparent KD of MS2 coat protein (MS2 coat protein [1]; [4]): 20.1 nM; apparent KD of MS2 coat protein (MS2 coat protein [1]; [5]): 43 nM; apparent KD of MS2 coat protein (MS2 coat protein [1]; [6]): 67.1 nM
GCUAGAAUUAAAGCCAACAUGAGGAUCACCCAUGUAUGUUGGUAGGAUAUCGUUUGCAAAGCAAACGAGAAGGGCCAAACUAGC [Mat - Same State NG 3 - JL Mod - D19] (Eterna round: R96, puzzle: Same State NG 3)	86.6	104	99.7	
UGUUGUAUUACAGGAUAUCUAUUAUUUUUACUUAGAGAAGGGUAUUCACAUGAGGAUCACCCAUGUAUAUACGAGGAAGUUGUG [JMF's solution 27] (Eterna round: R96, puzzle: Same State NG 1)		38.2		
AGGCCACCGGAAGGAUAUGGCACCUUAUUGGUGCCAGAAGGUCCAACAUGAGGAUCACCCAUGUGGGUGGGUUCUAAUGAACAU [Fiskers NG1 - 2] (Eterna round: R96, puzzle: Same State NG 1)	76.5	37.6	47.9	
AUAAGUUCGAUGCUCGUCUCUCCGUACAAACAUGAGGAUCACCCAUGUGAUCGGGAAGUAGCCCGGUCAGUAUGGCC [Ordierti] (puzzle: Sensor for hsa-mir-208a)				apparent KD of MS2 coat protein (MS2 coat protein [1]; [4]): 35.1 nM; apparent KD of MS2 coat protein (MS2 coat protein [1]; [5]): 24.4 nM; apparent KD of MS2 coat protein (MS2 coat protein [1]; [6]): 38.5 nM
CGCCGACAUGAGGAUCACCCAUGUGAGCGACUCACAGGAUAUACGCGAUAACAACUUCGCGUAGAAGGGUGCUCCU [Esvezaza] (puzzle: Same State 1)				apparent KD of MS2 coat protein (MS2 coat protein [1]; [4]): 14.4 nM; apparent KD of MS2 coat protein (MS2 coat protein [1]; [5]): 12.2 nM; apparent KD of MS2 coat protein (MS2 coat protein [1]; [6]): 14.4 nM
AUAAGAAACACAGGAUAUACCGCACUUAACACGGUAGAAGGGUGGGACAUGAGGAUCACCCAUGUGGUCCGGGCGCCGGACCGC [Geenusrior] (Eterna round: R96, puzzle: Same State NG 1)	711	27.8	329	
AUUUUUAAUGCAGGAUAUGAUUAACAUGAGGAUCACCCAUGUGGUGUUGUGAGUAAGGAGAGUGAUCAGAAGGGCAUUUUUUAU [JMF's solution 86] (Eterna round: R96, puzzle: Same State NG 2)	453	702	441	
GUAGCAUACCGAGGAUAUUCAUAUAAUAAUAACAUGAGGAUCACCCAUGUAAGGCGAAAGCCUUGGGAGAAGGCGGAAUGCUAC [Xeonanis - 20 Mod60] (Eterna round: R96, puzzle: Same State NG 2)	11.6	30	63.6	
CUGAGCAGUCAAGGAUAUCACGUCGAAUAGACGUGAGAAGGUGAUUAAUACAUGAGGAUCACCCAUGUAAUACAUGAAGCUCAG [SSNG1/11-A1] (Eterna round: R96, puzzle: Same State NG 1)	25.6	33.5	46.6	
GUAGCAUACCGAGGAUAUUCAUAUUAUAACAUGAGGAUCACCCAUGUAGGUCGAUUACGACCUUGGGAGAAGGCGGAAUGCUAC [Xeonanis - 20 Mod35] (Eterna round: R96, puzzle: Same State NG 2)	34.7	307	210	
AUUCGUUUGAUAGGAUAUCACUUUACAUGAGGAUCACCCAUGUUCACCACGCUGGUCCCUUAUACUGAGAAGGAUCUUGAUGAC [JR_SSNG2_Sub008] (Eterna round: R96, puzzle: Same State NG 2)	107	64.5	95.7	
GUUACAUGAGGAUCACCCAUGUAUGUGUGGGAGUAAGUGUCUUAGGAUAUCUAGUAUUUAAUCUAAGAGAAGGAAGAUUGUUGU [JMF's solution 65] (Eterna round: R96, puzzle: Same State NG 3)	105	74.1	128	
CCGGAUAAUGGAGGAUAUGGAGCCUUAUUGGCUCCAGAAGGCUAACAUGAGGAUCACCCAUGUUUUCCGGCGGUCAAUAGACCG [Eli NG1ss - 63] (Eterna round: R96, puzzle: Same State NG 1)	10	11.4	18.2	
AUAAAACAUGAGGAUCACCCAUGUCAACAAAAUCGAGGAUAUGGACAGACUUCGGUCUGUCCAGAAGGCGAAUAAU [salish99_ss1_r3_100] (puzzle: Same State 1)				apparent KD of MS2 coat protein (MS2 coat protein [1]; [5]): 13.8 nM
UGAAUAGUCACAGGAUAUCAUGCGAAAAUUGCGUGAGAAGGGUGGAUGUUGUGCUCAAAGUUCUACAUGAGGAUCACCCAUGUU [SameState NG1 #43] (Eterna round: R96, puzzle: Same State NG 1)	61.2	64	63.3	
CGAGGCGUACAUGAGGAUCACCCAUGUACCUAACAACAAAGCAAGGAUAUCCUGGCUAUAAUACAGGAGAAGGUGUGGUCCUUA [Eternabot solution 15] (Eterna round: R96, puzzle: Same State NG 3)		107		
UAGGAACAUGAGGAUCACCCAUGUACCUCAUAUGGAGAAACACAGGAUAUGCUCAGCGAAAGAGAGCAGAAGGGUGAAGAGAGG [Default title] (Eterna round: R96, puzzle: Same State NG 3)	23.6	27.6	31.6	
GGAUCGUCGGCAGGAUAUGAGCAAGUGCAUCGAUCAGAAGGGUCGAGUCCUAGAAGGUAAAGCACAUGAGGAUCACCCAUGUAG [Eternabot solution 39] (Eterna round: R96, puzzle: Same State NG 1)	40.7	63.7	96.3	
GCCGCGUUUCGCGCCUACAUGAGGAUCACCCAUGUUUGUAGGCAGGAUAUCGUCCGCUCUGCGGGCGAGAAGGGCUGUUGUGGG [salish99_SSNG3_R04_023] (Eterna round: R96, puzzle: Same State NG 3)	214	139	179	
UUUAUAUUCAGAGGAUAUUAAUGUUGUAUAAUAUAAGAAGGCUGUUUGUUUUGUAAAGUUAUUAUACAUGAGGAUCACCCAUGU [JR_SSNG1_Sub082] (Eterna round: R96, puzzle: Same State NG 1)		15.5		
UUUAUUAUUGACUCGUUUUGGUAUUAAGAACGAGGACCGGUACGGCCGCCACUCGUGAUAUACAUGAGGAUCACCCAUGUUAGCA [JR_Nu_SSTryptoA_Sub021]				apparent KD of MS2 coat protein (MS2 coat protein [2]; input ligand: arginine 13.2 mM): 19.4 nM; apparent KD of MS2 coat protein (MS2 coat protein [2]; [7]): 19.4 nM; apparent KD of MS2 coat protein (MS2 coat protein [2]; [8]): 18.3 nM
UAUCCACAUGAGGAUCACCCAUGUUAGGAAGGAGCGGUGAAUGAACCAGGUAGGUCGCCUAGCUGAGGACCGUCGAUGGAUUCGU [Exclusion - Arginine A (Freestyle 16)]				apparent KD of MS2 coat protein (MS2 coat protein [2]; input ligand: arginine 13.2 mM): 13.7 nM; apparent KD of MS2 coat protein (MS2 coat protein [2]; input ligand: none): 27.3 nM; apparent KD of MS2 coat protein (MS2 coat protein [2]; [8]): 28.2 nM; apparent KD of MS2 coat protein (MS2 coat protein [2]; [9]): 18.4 nM
GUCAGUAGAACAGAUACCAGUCAAAAGCUGUGAUCUCAUAACAUGAGGAUCACCCAUGUUGACCCUUGGCAGCUGUGGGCGAGGG [#19 Exclusion-TheophyllineB]				apparent KD of MS2 coat protein (MS2 coat protein [2]; input ligand: arginine 13.2 mM): 27 nM; apparent KD of MS2 coat protein (MS2 coat protein [2]; [7]): 29.1 nM; apparent KD of MS2 coat protein (MS2 coat protein [2]; [9]): 19.1 nM
AGAUUCGACACGGCCGCCACUUGUGGUGGAUUAUCCUAUGUCGAACAUGAGGAUCACCCAUGUACAAGGACCGGGUGUUGAGUCU [XTryp B #21]				apparent KD of MS2 coat protein (MS2 coat protein [2]; input ligand: arginine 13.2 mM): 156 nM; apparent KD of MS2 coat protein (MS2 coat protein [2]; [7]): 365 nM; apparent KD of MS2 coat protein (MS2 coat protein [2]; [8]): 447 nM
